According to patent US20260097076A1 (ELPIS BIOPHARMACEUTICALS, published 2026):
Residue numbers refer to the chain shown, from its start. In names and notes the source's numbering stands.

T1: B Cell Maturation Antigen (BCMA) on cells (UniProt Q02223 1-184, limits assumed)
T1 construct: whole, on cells; One molecule is used for the recombinant (CHOK1) and the endogenous (myeloma lines) cell-surface BCMA; also called tumor necrosis factor receptor superfamily member 17 (TNFRSF17); CD269
T1 sequence (looked up): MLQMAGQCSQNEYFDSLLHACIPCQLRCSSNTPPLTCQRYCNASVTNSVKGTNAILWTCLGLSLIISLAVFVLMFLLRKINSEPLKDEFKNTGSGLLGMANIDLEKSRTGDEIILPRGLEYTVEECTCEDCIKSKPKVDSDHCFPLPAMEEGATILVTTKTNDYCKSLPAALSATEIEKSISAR

T2: Human BCMA-Fc (human, UniProt Q02223 1-54)
T2 construct: also called human BCMA-Fc protein; recombinant BCMA-Fc fusion protein; not shown: Fc part (captured by anti-human Fc antibody or Protein A)
T2 sequence (looked up): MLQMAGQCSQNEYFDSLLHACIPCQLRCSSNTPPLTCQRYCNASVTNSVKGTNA

B1: BC-06 (anti-BCMA antibody in scFv format) (scFv)
scFv: EVQLVESGGGLVQPGRSLRLSCAASGFTFDDYAMHWVRQAPGKGLEWVSGISWNSGSIGYADSVKGRFTISRDNAKNSLYLQMNSLRAEDTALYYCAKVQPPGAFDIWGQGTMVTVSSGGGGSGGGGSGGGGSDIQLTQSPSFLSASVGDRVSITCRSTQGISSYLGWYQQKPGKAPKLLIYATSTLQSGVPSRFSGSGSGTEFTLTISSLQPEDFATYYCQQLYSFGQGTKLEIK
notes: Human scFv from mRNA display, VH-(G4S)3-VL, expressed in E. coli periplasm, His-purified; also called clone BC-06; not shown: C-terminal flag and 6xHis tag
B2: BC-07 (anti-BCMA antibody in scFv format) (scFv)
scFv: B1 scFv with P101S
notes: Human scFv from mRNA display, VH-(G4S)3-VL, expressed in E. coli periplasm, His-purified; not shown: C-terminal flag and 6xHis tag
B3: BC-05 (anti-BCMA antibody in scFv format) (scFv)
scFv: QMQLVQSGGGVVQPGGSLRLSCAASGFTFSSYGMHWVRQAPGKGLEWVAFIRYDGSNKYYADSVKGRFTISRDNSKNTLYLQMNSLRAEDTAVYYCAKDWEDPLYYYDTPFWGQGTLVTVSSGGGGSGGGGSGGGGSVIWMTQSPSSVSASVGDIITITCQASQDINNYLNWYQLKPGKAPKLLIYDASNVETGVPSRFSGSGSGTDFTFTISSLQPEDTATYYCQQYDKLPYTFGQGTKLEIK
notes: as for B2
B4: BC-03 (anti-BCMA antibody in scFv format) (scFv)
scFv: QMQLVQSGGGVVQPGGSLRLSCAASGFTFSSYGMHWVRQAPGKGLEWVAFIRYDGSDKYYADSVKGRFTISRDNSKNTLYLQMNSLRAEDTAVYYCAKDLTTITPGYWGQGTLVTVSSGGGGSGGGGSGGGGSVIQMTQSPSSLSASVGDRVTITCQASQDISNYLNWYQQKPGKAPKLLIYDASNLETGVPSRFSGSGSGTDFTFTISSLQPEDIATYYCQQYDNLPLTFGGGTKVEIK
notes: as for B2
B5: BC-08 (anti-BCMA antibody in scFv format) (scFv)
scFv: QVQLVQSGGGVVQPGRSLRLSCAASGFTFSSYAMHWVRQAPGKGLEWVAVISYDGSNKYYADSVKGRFTISRDNAENSVYLQMNSLRAEDTAVYYCARDEHQVVPNYRFDFWGQGSQVTVSSGGGGSGGGGSGGGGSQLVLTQPPSASGTPGQRVTISCSGSGSNIGSNDVSWYQQIPGTASKLLIYWNDQRPSGVPDRFSGSKSGTSASLAISGLQSEDEADYYCAAWDDSLNGWVFGGGTKLTVL
notes: as for B2
B6: BC-01 (anti-BCMA antibody in scFv format) (scFv)
scFv: EVQLVQSGGGVVQPGGSLRLSCAASGFTFSSYGMHWVRQAPGKGLEWVAFIRYDGSNKYYADSVKGRFTISRDNSKNTLYLQMNSLRAEDTAVYYCAKDLWDGIVGAPAGYWGQGTLVTVSSGGGGSGGGGSGGGGSDVVMTQSPSSLSASVGDRVTITCQASQDISNYLNWYQQKPGKAPKLLIYDASNLETGVPSRFSGSGSGTDFTFTISSLQPEDIATYYCQQYDNLPLTFGGGTKVEIK
notes: as for B2
B7: BC-09 (anti-BCMA antibody in scFv format) (scFv)
scFv: QVQLVQSGGGVVQPGGSLRLSCAASGFTFSSYGMHWVRQAPGKGLEWVAFIRYDGSNKYYADSVKGRFTISRDNSKNTLYLQMNSLRAEDTAVYYCAKDLWEFGGDYADYWGQGTLVTVSSGGGGSGGGGSGGGGSNIQMTQSPSSLSASVGDRVTITCQASQDISNYLNWYQQKPGKAPKLLIYDASNLETGVPSRFSGSGSGTDFTFTISSLQPEDIATYYCQQYDNLPLTFGGGTKVEIK
notes: as for B2
B8: BC-02 (anti-BCMA antibody in scFv format) (scFv)
scFv: QVQLVQSGGGVVQPGGSLRLSCAASGFTFSSYGMHWVRQAPGKVLEWVAFIRYDGSNKYYADSVKGRFTISRDNSKNTLYLQMNSLRAEDTAVYYCAKDWDYYDSSGYYPDALGIWGQGTMVTVSSGGGGSGGGGSGGGGSEIVLTQSPSSLSASVGDRVTITCQASQDISNYLNWYQQKPGKAPKLLIYDASNLETGVPSRFSGSGSGTDFTFTISSLQPEDIATYYCQQYDNLPFTFGPGTKVDIK
notes: as for B2

target: T1, B Cell Maturation Antigen (BCMA) on …; experiment: flow cytometry, serial diluted scFv on BCMA/CHOK1 cells
Description: Cells were spun down at 1200 rpm for 6 minutes at 4° C. to remove primary antibodies. Cells were then washed once with 200 μL of full medium per well. Samples were detected with premixed anti-His Biotin Streptavidin Alexa fluor 647 by adding 100 μL of diluted secondary antibody and incubated at 4° C. for 30 minutes in the dark. Samples were spun down at 1200 rpm for 5 minutes at 4° C. and washed twice with 200 μL of 1×PBS per well. Reconstituted samples in 200 μL of 1×PBS and read on Attune NxT cytometer. Analysis was done by Attune NxT software plotting the overlaying the histogram of anti-BCMA scFvs binding onto both negative and target cell lines. […] The BCMA cell binding affinity for exemplary anti-BCMA antibodies (in scFv format) was also generated with serial diluted scFvs as described above.

| EC50 | Binder |
| --- | --- |
| 1.9 nM | B1 |
| 13.2 nM | B2 |
| 4.91 nM | B3 |
| 16.1 nM | B4 |
| 1 nM | B5 |
| 18.9 nM | B6 |
| 5.28 nM | B7 |
| 84 nM | B8 |

target: T1, B Cell Maturation Antigen (BCMA) on …; experiment: flow cytometry on H929 multiple myeloma cells (endogenous BCMA)

| EC50 | Binder |
| --- | --- |
| 2.85 nM | B1 |

target: T1, B Cell Maturation Antigen (BCMA) on …; experiment: flow cytometry on MM1R multiple myeloma cells (endogenous BCMA)

| EC50 | Binder |
| --- | --- |
| 0.74 nM | B1 |

target: T2, Human BCMA-Fc; experiment: SPR, Biacore T200, BCMA-Fc captured on Protein A chip, scFv as analyte
Description: Kinetic analysis of anti-BCMA scFvs have been assessed by SPR technology with Biacore T200. The assay was run with Biacore T200 control software version 2.0. Protein A sensor chip was used to capture Fc fusion protein in the assay. For each cycle, 1 μg/mL of human BCMA-Fc protein was captured for 60 seconds at flow rate of 10 ul/min on flow cell 2 in 1×HBSP buffer on Protein A sensor chip. 2-fold serial diluted HIS tag purified anti-BCMA scFv was injected onto both reference flow cell 1 and BCMA-Fc captured flow cell 2 for 150 seconds at flow rate of 30 ul/min followed by wash for 300 seconds. The flow cells were then regenerated with Glycine pH2 buffer (GE) for 30 seconds at flow rate of 30 ul/mins. 8 concentration points from 300-0 nM was assayed per anti-BCMA scFv in a 96 well plate. The kinetics of scFvs binding to BCMA protein was analyzed with Biacore T200 evaluation software version 3.0. The specific binding response unit was derived from subtraction of binding to reference flow cell 1 from BCMA captured flow cell 2.

| Kd | koff | kon | Binder |
| --- | --- | --- | --- |
| 7.87 nM | 0.00251 s⁻¹ | 319000 M⁻¹ s⁻¹ | B1 |
| 26.2 nM | 0.00592 s⁻¹ | 226000 M⁻¹ s⁻¹ | B2 |
| 10.4 nM | 0.000646 s⁻¹ | 62400 M⁻¹ s⁻¹ | B3 |
| 11.9 nM | 0.00359 s⁻¹ | 302000 M⁻¹ s⁻¹ | B4 |
| 0.653 nM | 0.00116 s⁻¹ | 1.78e+06 M⁻¹ s⁻¹ | B5 |
| 3 nM | 0.000431 s⁻¹ | 144000 M⁻¹ s⁻¹ | B6 |
| 19.6 nM | 0.00407 s⁻¹ | 208000 M⁻¹ s⁻¹ | B7 |
| 12.9 nM | 0.00118 s⁻¹ | 91600 M⁻¹ s⁻¹ | B8 |

target: T2, Human BCMA-Fc; experiment: ELISA, human BCMA-Fc captured by anti-human Fc, scFv detected with anti-Flag HRP
Description: An ELISA assay was developed to determine the EC₅₀ of anti-BCMA antibodies. Briefly, 384 well plate was immobilized with anti-human Fc antibody at final concentration of 2 μg/mL in 1×PBS in total volume of 25 uL per well. The plate was incubated overnight at 4° C. followed by blocking with 80 μL of superblock per well for 1 hour. Human BCMA-Fc was captured through immobilized anti-hFc antibody. Purified anti-BCMA scFvs were 2-fold serial titrated from 200 nM. 25 μL of diluted scFv was added to human BCMA immobilized wells and incubated for 1 hour with shaking. The BCMA binding was detected by adding 25 μL of anti-Flag HRP diluted at 1:5000 in 1×PBST. In between each step, the plate was washed 3 times with 1×PBST in a plate washer. The plate was then developed with 20 μL of TMB substrate for 5 mins and stopped by adding 20 μL of 2 N sulfuric acid. The plate was read at OD450 nm Biotek plate reader and then plotted in Prism 8.1 software.

| EC50 | Binder |
| --- | --- |
| 0.62 nM | B1 |
| 0.802 nM | B2 |
| 0.536 nM | B3 |
| 2.32 nM | B4 |
| 0.299 nM | B5 |
| 0.938 nM | B6 |
| 0.597 nM | B7 |
| 1.92 nM | B8 |
